The results in this text go back to the DeepSol protein solubility set.

The data set in a line: soluble on expression in E. coli; label from the status in PepcDB or PDB records.
For the sequence “MFLRYMRRRGSGEDHEEEPRGVTVIATKVAENSKNPRRYSLVHQASCETQHHKGIRRQNTIQHRKQLTDQMRCQKILQQLNDEGIEVIFTANDVTPIEFSIILTSTDPTLSNFVSDILQNMSSAKVQICHVETRGNEASHDVLLACKATKNQLIHSAELLTQNHVALTKFSIFAKKLSDEKNQSQIWFPRHISELDQCSKCITKYEPTTDPRHPGHGDVAYIARRKFLNDQALEFKFGDEIGYVDYTEEEHATWKAVYEKLGDLHLSHTCAVYRQNLKILQEEKVLTADRIPQIRDVNKFLQKKTGFELRPCSGLLSARDFLASLAFRVFQTTTYLRHHKSPHHSPEPDLIHELLGHVPMFSDPLLAQMSQDIGLMSLGASDEHIEKLSTVYWFIVEFGLCKEDGKLKAIGAGLLSAYGELMHACSDAPEHKDFDPAVTAVQKYEDDDYQPLYFVADSIHDALAKLRKYASSMDRPFSVVYDPFTKSIEAIESSADLEKAFSRLSNDLSAITHAADRMKISITM”, the “soluble on expression in E. coli” value was “not soluble”.
As for “MFMEVSLTSLPAHVMNALDAIWEGSIADSLESETLEFKEDPSCAGRGKQHGNPQAALIEKLIDEAVCLANGDAGTGHIVVGIKDKIGGPEAFTGTTFDTEKIAKKIFDGTRPNLRPEVHEVRYQNNRLIVIYIPEALSLYSRSKGQTSKRVGSHCEPLSEEQRRAIAATRAHADYSNGISEFNVDDIAADTIQEVRRLLKTKRAQSGIDTSLPTTTNGLLRELGLIDNYGALKRAGAILLLPAPEGQLSIRHFWRSFPGIDPEVTDYNQPLLIALSSLKRRITENANKEIKRIQFSDGQEIAVSAFPQTAVDEVVTNAIIHRDWRLSRPVVIDQSPQTLKVWSPGSLPVGVTPNRLLTTQSIPRNSRLMSAMRMLGLAEESSRGFDRIWAALLGSGRDIPDVHTEDTFVEVILHSGNPDESFIKALHELSLSFNPDMLHSVNTLIVLWHLWTSPVISLKQARVKTQTSSKEATELMFALESNGLLTQIHNTDEWFLSEKARKTTNYYQSETIPQSSVQTWVEEKLSSGSPISAAEIAESIGMPRPEITEILRNLRRAGKAHIDPSGPQRGSGTRWIKGT”, the entry is “not soluble”; as for “MFNKKMVAMAMTVPLVMGTLSTVSAVETKKQVKVEAYSPQKKAIEYLKGNANQYGLKPDLSDLQYISTTETPVASYVRFQQVVNGAPVFSNQITVTLNGEGKGVLAVSDYQPIKAVKQVTEKISEKDAIQKSMAYVGEASEQNLWAPTEKEFGYIIEEGIARPVYKVVVHSNNPFGAWETFIDAENGKLIKKVDINRKVEGTGKVFLPNPVVSSGSLAGLKDNNDADSTALTNQLKTVTLKGLDGTGFLIGEYVTISSKARTKSTNLQFNYTRANDSFEDVMSYYHIDTLQRYIQSLGFQNINNRSIKVNVNGTTADNSFYSPTTKALTFGTGGVDDAEDAGIIAHEYGHSIQDNQVPGFGSSAEGGAMGEGFGDFLGATYEDAVSTTGYGKACVGEWDAAAYSSSDPTCLRRLDTNKVYPKDMKNQVHADGEIWSQGQYEMAQAFGRDVATKIILQSHWSLTPNSKFSDGAKAIKQADALLYGGQHAADIDRIWAARGISTN”, “not soluble”; as for “MFNNNDFKDYRKLLGFGSQNAFKEFLGAKDIQPCVDFNDLNALKKRLIEIFSAINSIYCFKYNEYELECFFKNSIERVFSKIVDTHIIYKLNNQGRRPEEVCFSWMRGFLVAEFFKDFIACLFSAQKETIKFFGGDNFENIESFKRSPKADFLLDNHLLLEVQSDFQGINDIKEHKVLEAKRRLITDKVPTIVVHFDLFNGQVACVEISKIKDNDLNWITRQQMEGQSVFNISQNFFDYKITEIPNKPLS”, “not soluble”.
As for “MFPNSILGHPPFTPNHQQHNNFFTLSPTVYSHQQLIDAQFNFQNADLSRAVSLQQLTYGNVSPIQTSASPLFRGRKRLSDEKNLPLDGKRQRFHSPHQEPTVVNQIVPLSGERRYSMPPLFHTHYVPDIVRCVPPFREIAFLEPREITLPEAKDKLSQQILELFETCQQQISDLKKKELCRTQLQREIQLLFPQSRLFLVGSSLNGFGTRSSDGDLCLVVKEEPCFFQVNQKTEARHILTLVHKHFCTRLSGYIERPQLIRAKVPIVKFRDKVSCVEFDLNVNNIVGIRNTFLLRTYAYLENRVRPLVLVIKKWASHHQINDASRGTLSSYSLVLMVLHYLQTLPEPILPSLQKIYPESFSPAIQLHLVHQAPCNVPPYLSKNESNLGDLLLGFLKYYATEFDWNSQMISVREAKAIPRPDGIEWRNKYICVEEPFDGTNTARAVHEKQKFDMIKDQFLKSWHRLKNKRDLNSILPVRAA”, the entry is “not soluble”; as for “MFPYYQRQCPTGSVPYTIKAGDTLAAIARIYGTTVQDIINANPDIDPYYLRVGQQICIPLTMQIYPSCPTTNYYVVRPEDTLESIAAYFNITPQQLLYSNYGIDPTDLYVDQILCIPVAPPPVTVNVNVAERTLTVYRDGRIYRTYRIALENPASPIPRGTFTVLNKQVDPGVEMGARWIGLSEAGFGIHGTNTPEFIDVVSTGNSIVMSNEDVSELFNLVPVGTIVTIS”, “soluble”; as for “MFQKLLAFLTVVVFVSAAGNSCKIGKVINKPVIDGTPVYWPASWNETQPAPQLEKEQSCSWYVTIPRGYYAKLIISGKTTDKDSRFQTVDSAGNLIQTTHEKMVPYYFPASKFTLAVSNEGSATFAFKVVWWPLPTEKYVDIVASIGQVINVTETVVAMEYAAPGGITLLTFPEDLKNYNSLRSTLIYDGSSLTSATYVSNLFLLNQSKKQWTSSQDGIVVVNVEASRSMNKLLIQGSVYLAGIDEIVELHPQPNSIYNGTVNAGAHMSSLVAVSDLELQMIDVQMKDDSTVSVYYGSPDAFTLDKTYTGAELKKALPLPFGGYFVQFVVSSGKAVFTFKS”, “not soluble”.
Regarding “MFQLSVQDIHPGEKAGDKEEAIRQVAAALVQAGNVAEGYVNGMLAREQQTSTFLGNGIAIPHGTTDTRDQVLKTGVQVFQFPEGVTWGDGQVAYVAIGIAASSDEHLGLLRQLTHVLSDDSVAEQLKSATTAEELRALLMGEKQSEQLKLDNEMLTLDIVASDLLTLQALNAARLKEAGAVDATFVTKAINEQPLNLGQGIWLSDSAEGNLRSAIAVSRAANAFDVDGETAAMLVSVAMNDDQPIAVLKRLADLLLDNKADRLLKADAATLLALLTSDDAPTDDVLSAEFVVRNEHGLHARPGTMLVNTIKQFNSDITVTNLDGTGKPANGRSLMKVVALGVKKGHRLRFTAQGADAEQALKAIGDAIAAGLGEGA”, the “soluble on expression in E. coli” value is given as “soluble”.
Turning to “MFQQQNDWETRENAFAAFAMGPLTDFWRQREEAEFIGVGNIPVRFVRFRNDSNDRTIVICPGRIESYVKYAELAYDLFHLGFDIFIIDHRGQGRSGRMLSDPHRGHVDHFNDYVEDLAAFWQQEIEPGPWRKRYILAHSMGGAIATLFLQRHRVRCDAIALTAPMFGIVIRLPSFMVRHILDWAEGHQRIREDYAIGTGQWRALPFGMNALTHSRQRYQRNLRFYADEPQLRVGGPTWHWVREGILAGEQVLAGASDDTTPTLLIQAEEERVVDNRTHDRFCEIRAAAGYPCEGGKPLVIKGAYHEILFEKDAMRSVALNAIVEFFNKPNLSSGNRFA”, the “soluble on expression in E. coli” value is “not soluble”.
Regarding “MFSILLPTWNNLALLKLCVQSIRAHSAHDHQIIVHVNDGSDGTLAWVREQGLDHTHSPGNVGICLAVNESAMLARHDYIVYLNDDMVCCPGWDTALLRRLDTLDTDLFMLSGTMIEPVDTGNPCVVVGNYGRDADTFDAARLLADVPRLARGDWLGATWPPTLVHRRWWFKLGGYSSELTPGMSSDNDFSMKLWHAGCRIFLGAGDSLVYHFQCKSTGKVKKNDGRRQFLNKWGLSQSTFDKYFLRRGTPAGADWRLPEPELTSALRWDLRRNDLTRRLRPGVPVLLEHHHHHH”, the “soluble on expression in E. coli” value was “soluble”.
As for “MFSIPPLPWGYDGLAAKGLSKQQVTLHYDKHHQGYVTKLNAAAQTNSALATKSIEEIIRTEKGPIFNLAAQIFNHTFYWESMCPNGGGEPTGKVADEINASFGSFAKFKEEFTNVAVGHFGSGWAWLVKDTNSGKLKVYQTHDAGCPLTEPNLKPLLTCDVWEHAYYVDYKNDRAAYVQTFWNVVNWKNVERQL”, the entry is “soluble”; as for “MFSKSSNRFGTTSIFGDQSIKDEYRNRQRRLSLIGGPISGTSPNRRESLVRELRTVSLHQYTEDPTLAWEMLKEKRPVKPVRQMRLDTPVKPDHVRFVCIGCTHGEQFDISKLPPGDVLLVAGDFTSCGLPNEVHNFNKLLGKLKYSYKVVIGGNHECTFDDTFLKLKQESEPKEMALKQALLSAIHSDSKGGISAKDLLSNAIYLEDNVIELFGITIYGTPWQPKVDNWAFNLSRGQQLLDKWNLIPAALTCF”, “not soluble”.
